The values that follow come from US20200207858A1 (ADICET BIO, published 2020).

Assay [1] addresses T1, Single-chain HLA-A2 (scHLA-A2)/TyrD 369-377 peptide complex.
T1 construct: Used as the soluble analyte in SPR; not shown: flexible linker
Put plainly: SPR (ProteOn), IgG captured by immobilized anti-mouse antibody, scHLA-A2/TyrD 369-377 as analyte (250-16 nM), Langmuir kinetic fit, column KD.

Assay [2] deals with T1, Single-chain HLA-A2 (scHLA-A2)/TyrD …. The assay can be described thus: SPR (ProteOn), IgG captured by immobilized anti-mouse antibody, scHLA-A2/TyrD complex as analyte at 16-250 nM, apparent affinity.
Experimental: (§1) Briefly, six channels of ProteOn GLM sensor chip (BioRad laboratories) were activated with 50 μl of a mixture of 0.04 M N-ethyl-N′-(3-dimethylaminopropyl) carbodiimide (EDC) and 0.01 M sulfo-N-hydroxysuccinimide (Sulfo-NHS) at a flow rate of 30 μl/min. The anti-mouse or anti-human polyclonal antibodies (Jackson ImmunoResearch) were diluted in 10 mM sodium acetate buffer pH 4.5 to a final concentration of 25 μg/ml and 150 μl were injected followed by an injection of 150 μl of 1 M ethanolamine-HCl pH 8.5. The IgG TCRL antibodies were injected in the vertical orientation with a flow rate of 30 μl/min. […] Running buffer (PBST) was injected simultaneously in the sixth channel for double referencing to correct for loss of the captured antibodies from the chip sensor surface during the experiment. All binding sensorgrams were collected, processed and analyzed using the integrated ProteOn Manager (Bio-Rad Laboratories, Hercules, USA) software. Binding curves were fitted using the Langmuir model describing 1:1 binding stoichiometry, or with the Langmuir and mass transfer limitation model.
Assay [3] has the same target. Put plainly: SPR (ProteOn), IgG captured by immobilized anti-human antibody, scHLA-A2/TyrD complex as analyte at 16-250 nM, apparent affinity.
Experimental: as §1
Assay [4] shares this target. Put plainly: SPR (ProteOn), IgG captured by immobilized anti-human antibody, scHLA-A2/TyrD 369-377 as analyte (250-16 nM), Langmuir kinetic fit, column KD.
Experimental: as §1

B1: D11 TCRL antibody (murine parental monoclonal antibody) (antibody, mouse IgG1, kappa, V domains shown)
VH: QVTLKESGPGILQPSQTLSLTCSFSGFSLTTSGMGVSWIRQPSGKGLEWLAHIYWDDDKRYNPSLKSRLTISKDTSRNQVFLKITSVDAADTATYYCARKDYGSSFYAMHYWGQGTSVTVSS
VL: DIQMTQSPSSLSASLGGKVTITCKASQDIHNYIAWYQHKPVKGPRLLIHYTSTLQPGTPSRFSGSGSGRDYSFSISNLEPEDIATYYCLQYDNLWTFGGGTKLEIKR
notes: Mouse IgG1 isotype, recombinant from Expi293 cells; The antibody was biotinylated for flow cytometry; also called mouse parental D11
For B1, the Kd in assay [1] turned out to be 3.98 nM; in assay [2], 4.6 nM.

B2: hD11-5 TCRL antibody (humanized D11) (antibody, human IgG1, kappa, V domains shown)
VH: QITLKESGPTLVKPTQTLTLTCTFSGFSLSTSGMGVSWIRQPPGKALEWLAHIYWDDDKRYNPSLKSRLTITKDTSKNQVVLTMTNMDPVDTATYYCARKDYGSSFYAMHYWGQGTLVTVSS
VL: DIQMTQSPSSLSASVGDRVTITCKASQDIHNYIAWYQQKPGKAPKLLIHYTSTLQPGVPSRFSGSGSGTDFTFTISSLQPEDIATYYCLQYDNLWTFGQGTKVEIKR
notes: The antibody was biotinylated for flow cytometry; also called dH11-5
For the molecule B2, the values for the Kd in assay [3] and in assay [4] were 3.9 nM and 4.61 nM, respectively.
